According to paper PMC10397247:
Each block holds one binder with its values, some of them ahead of it.

Legend:
4H953-bN = biological target: T1, 4H953-bN; experiment: two-hybrid library CCNG1;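 also: natural log of median RNA to DNA barcode read ratio; higher means stronger binding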
T1 chain: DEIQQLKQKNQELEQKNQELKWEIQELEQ

4H3162-bH = biological target: T2, 4H3162-bH; experiment: two-hybrid library CCNG1;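 also: natural log of median RNA to DNA barcode read ratio; higher means stronger binding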
T2 chain: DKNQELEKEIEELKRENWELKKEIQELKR

4H2586-bH = biological target: T3, 4H2586-bH; experiment: two-hybrid library CCNG1;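 also: natural log of median RNA to DNA barcode read ratio; higher means stronger binding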
T3 chain: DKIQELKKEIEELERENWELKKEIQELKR

4H953-bH = biological target: T4, 4H953-bH; experiment: two-hybrid library CCNG1;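 also: natural log of median RNA to DNA barcode read ratio; higher means stronger binding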
T4 chain: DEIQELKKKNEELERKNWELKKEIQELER

4H112-bH = biological target: T5, 4H112-bH; experiment: two-hybrid library CCNG1;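 also: natural log of median RNA to DNA barcode read ratio; higher means stronger binding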
T5 chain: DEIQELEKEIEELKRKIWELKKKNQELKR

4H626-bH = biological target: T6, 4H626-bH; experiment: two-hybrid library CCNG1;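 also: natural log of median RNA to DNA barcode read ratio; higher means stronger binding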
T6 chain: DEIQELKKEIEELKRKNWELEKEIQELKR

4H2702-bH = biological target: T7, 4H2702-bH; experiment: two-hybrid library CCNG1
T7 chain: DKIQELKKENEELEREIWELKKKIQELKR

4H683-bH = biological target: T8, 4H683-bH; experiment: two-hybrid library CCNG1
T8 chain: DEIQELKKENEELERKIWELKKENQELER

4H457-bH = biological target: T9, 4H457-bH; experiment: two-hybrid library CCNG1
T9 chain: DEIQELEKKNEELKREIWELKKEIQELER

4H3112-bH = biological target: T10, 4H3112-bH; experiment: two-hybrid library CCNG1
T10 chain: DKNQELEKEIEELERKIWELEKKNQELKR

4H4073-bH = biological target: T11, 4H4073-bH; experiment: two-hybrid library CCNG1
T11 chain: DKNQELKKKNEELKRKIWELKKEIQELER

4H118-bH = biological target: T12, 4H118-bH; experiment: two-hybrid library CCNG1
T12 chain: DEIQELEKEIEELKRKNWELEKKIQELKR

4H346-bH = biological target: T13, 4H346-bH; experiment: two-hybrid library CCNG1
T13 chain: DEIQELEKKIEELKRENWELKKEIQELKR

4H3175-bH = biological target: T14, 4H3175-bH; experiment: two-hybrid library CCNG1
T14 chain: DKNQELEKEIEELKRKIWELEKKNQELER

4H2627-bH = biological target: T15, 4H2627-bH; experiment: two-hybrid library CCNG1
T15 chain: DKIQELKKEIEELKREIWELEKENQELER

4H3010-bH = biological target: T16, 4H3010-bH; experiment: two-hybrid library CCNG1
T16 chain: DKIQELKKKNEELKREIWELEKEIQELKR

4H855-bH = biological target: T17, 4H855-bH; experiment: two-hybrid library CCNG1
T17 chain: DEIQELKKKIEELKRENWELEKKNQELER

4H918-bH = biological target: T18, 4H918-bH; experiment: two-hybrid library CCNG1
T18 chain: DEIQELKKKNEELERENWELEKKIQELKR

4H170-bH = biological target: T19, 4H170-bH; experiment: two-hybrid library CCNG1
T19 chain: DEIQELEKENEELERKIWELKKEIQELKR

4H2627-bA = biological target: T20, 4H2627-bA; experiment: two-hybrid library CCNG1
T20 chain: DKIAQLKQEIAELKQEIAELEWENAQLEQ

4H968-bH = biological target: T21, 4H968-bH; experiment: two-hybrid library CCNG1
T21 chain: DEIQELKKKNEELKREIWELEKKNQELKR

4H754-bH = biological target: T22, 4H754-bH; experiment: two-hybrid library CCNG1
T22 chain: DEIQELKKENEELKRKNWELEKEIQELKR

4H1373-bH = biological target: T23, 4H1373-bH; experiment: two-hybrid library CCNG1
T23 chain: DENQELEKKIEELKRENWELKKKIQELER

4H3926-bH = biological target: T24, 4H3926-bH; experiment: two-hybrid library CCNG1; conditions: mean of both orientations
T24 chain: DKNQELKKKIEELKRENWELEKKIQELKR

4H1544-bH = biological target: T25, 4H1544-bH; experiment: two-hybrid library CCNG1
T25 chain: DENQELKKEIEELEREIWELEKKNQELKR

4H1831-bH = biological target: T26, 4H1831-bH; experiment: two-hybrid library CCNG1
T26 chain: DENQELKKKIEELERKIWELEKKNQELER

4H906-bH = biological target: T27, 4H906-bH; experiment: two-hybrid library CCNG1
T27 chain: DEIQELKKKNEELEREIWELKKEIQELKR

4H2673-bH = biological target: T28, 4H2673-bH; experiment: two-hybrid library CCNG1
T28 chain: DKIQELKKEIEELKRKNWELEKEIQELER

4H3628-bH = biological target: T29, 4H3628-bH; experiment: two-hybrid library CCNG1
T29 chain: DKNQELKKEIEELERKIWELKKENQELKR

4H780-bH = biological target: T30, 4H780-bH; experiment: two-hybrid library CCNG1
T30 chain: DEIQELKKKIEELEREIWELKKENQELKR

4H1985-bH = biological target: T31, 4H1985-bH; experiment: two-hybrid library CCNG1
T31 chain: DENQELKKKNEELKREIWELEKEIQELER

4H2717-bA = biological target: T32, 4H2717-bA; experiment: two-hybrid library CCNG1
T32 chain: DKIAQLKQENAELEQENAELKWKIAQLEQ

O6-bS = biological target: T33, O6-bS; experiment: two-hybrid library CCNG1
T33 chain: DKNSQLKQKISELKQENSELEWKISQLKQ

4H591-bH = biological target: T34, 4H591-bH; experiment: two-hybrid library CCNG1
T34 chain: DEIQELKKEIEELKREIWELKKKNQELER

4H1158-bH = biological target: T35, 4H1158-bH; experiment: two-hybrid library CCNG1
T35 chain: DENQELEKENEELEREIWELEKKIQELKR

4H3497-bH = biological target: T36, 4H3497-bH; experiment: two-hybrid library CCNG1
T36 chain: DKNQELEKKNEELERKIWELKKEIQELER

4H3277-bH = biological target: T37, 4H3277-bH; experiment: two-hybrid library CCNG1
T37 chain: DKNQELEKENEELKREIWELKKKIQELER

4H1081-bH = biological target: T38, 4H1081-bH; experiment: two-hybrid library CCNG1; conditions: mean of both orientations
T38 chain: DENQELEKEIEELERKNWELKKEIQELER

4H3298-bH = biological target: T39, 4H3298-bH; experiment: two-hybrid library CCNG1
T39 chain: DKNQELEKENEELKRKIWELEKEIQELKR

4H797-bH = biological target: T40, 4H797-bH; experiment: two-hybrid library CCNG1
T40 chain: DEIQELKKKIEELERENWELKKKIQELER

4H1348-bH = biological target: T41, 4H1348-bH; experiment: two-hybrid library CCNG1
T41 chain: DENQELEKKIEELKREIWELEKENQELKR

4H1899-bH = biological target: T42, 4H1899-bH; experiment: two-hybrid library CCNG1
T42 chain: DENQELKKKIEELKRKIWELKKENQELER

4H575-bH = biological target: T43, 4H575-bH; experiment: two-hybrid library CCNG1
T43 chain: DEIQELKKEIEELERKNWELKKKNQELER

4H1710-bH = biological target: T44, 4H1710-bH; experiment: two-hybrid library CCNG1
T44 chain: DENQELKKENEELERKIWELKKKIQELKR

4H3427-bH = biological target: T45, 4H3427-bH; experiment: two-hybrid library CCNG1
T45 chain: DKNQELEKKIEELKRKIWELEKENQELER

4H3462-bH = biological target: T46, 4H3462-bH; experiment: two-hybrid library CCNG1
T46 chain: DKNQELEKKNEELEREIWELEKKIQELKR

4H3613-bH = biological target: T47, 4H3613-bH; experiment: two-hybrid library CCNG1
T47 chain: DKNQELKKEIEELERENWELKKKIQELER

Core_IIIN-es_KEKE = biological target: T48, Core_IIIN-es_KEKE; experiment: two-hybrid library CCmax
T48 chain: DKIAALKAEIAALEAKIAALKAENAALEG

Core_NINI-es_KEEE = biological target: T49, Core_NINI-es_KEEE; experiment: two-hybrid library CCmax; conditions: mean of both orientations
T49 chain: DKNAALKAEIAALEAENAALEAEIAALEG

Core_IIIN-es_KEEE = biological target: T50, Core_IIIN-es_KEEE; experiment: two-hybrid library CCmax; conditions: mean of both orientations
T50 chain: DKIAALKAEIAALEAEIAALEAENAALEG

Core_IIII-es_KKEK = biological target: T51, Core_IIII-es_KKEK; experiment: two-hybrid library CCmax; conditions: mean of both orientations
T51 chain: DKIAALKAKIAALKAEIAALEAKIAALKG

- interaction score (4H953-bN): -0.336
- interaction score (4H3162-bH): -0.705
- interaction score (4H2586-bH): -2.05
- interaction score (4H953-bH): -0.931
- interaction score (4H112-bH): -1.77
- interaction score (4H626-bH): -0.576
- interaction score (4H2702-bH): 1.09
- interaction score (4H683-bH): -0.574
- interaction score (4H457-bH): -0.677
- interaction score (4H3112-bH): -0.896
- interaction score (4H4073-bH): -1.25
- interaction score (4H118-bH): -1.07
- interaction score (4H346-bH): 0.118
- interaction score (4H3175-bH): -0.0753
- interaction score (4H2627-bH): 0.276
- interaction score (4H3010-bH): -1.02
- interaction score (4H855-bH): -0.163
- interaction score (4H918-bH): -0.0748
- interaction score (4H170-bH): -0.0634
- interaction score (4H2627-bA): 0.747
- interaction score (4H968-bH): -0.887
- interaction score (4H754-bH): -0.22
- interaction score (4H1373-bH): -1.35
- interaction score (4H3926-bH): 1.74
- interaction score (4H1544-bH): -1.4
- interaction score (4H1831-bH): -1.05
- interaction score (4H906-bH): -0.686
- interaction score (4H2673-bH): -0.0547
- interaction score (4H3628-bH): -1.16
- interaction score (4H780-bH): -0.372
- interaction score (4H1985-bH): -1.01
- interaction score (4H2717-bA): -0.543
- interaction score (O6-bS): 1.86
- interaction score (4H591-bH): -0.509
- interaction score (4H1158-bH): 0.0141
- interaction score (4H3497-bH): -1.2
- interaction score (4H3277-bH): -0.363
- interaction score (4H1081-bH): -1.95
- interaction score (4H3298-bH): -0.0402
- interaction score (4H797-bH): -0.717
- interaction score (4H1348-bH): -1.51
- interaction score (4H1899-bH): -0.674
- interaction score (4H575-bH): -2.22
- interaction score (4H1710-bH): -2.01
- interaction score (4H3427-bH): -0.522
- interaction score (4H3462-bH): -0.765
- interaction score (4H3613-bH): -1.47
Binder: DENQELEKEIEELERKNWELKKEIQELER [4H1081-bH]

- interaction score (Core_IIIN-es_KEEE): 2.06
Binder: DEIAALEAKIAALKAKIAALKAKNAALKG [Core_IIIN-es_EKKK]

- interaction score (Core_IIII-es_KKEK): 2.36
Binder: DEIAALEAEIAALEAKIAALKAEIAALEG [Core_IIII-es_EEKE]

Continued, binder first:

Binder: DEIAALEAKIAALKAEIAALEAKNAALKG [Core_IIIN-es_EKEK]
- interaction score (Core_IIIN-es_KEKE): 2.11

Binder: DENAALEAKIAALKAKNAALKAKIAALKG [Core_NINI-es_EKKK]
- interaction score (Core_NINI-es_KEEE): 2.35
